Measured values: the supplement of paper PMC9170038

Test system: K4 kissing-loop RNA reporter
Experiment: apparent KD of K4 kissing-loop reporter; higher = weaker reporter binding
Settings: Eterna round: R107
Description: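 RNA-MaP round R107: designed RNA switches with theophylline, tryptophan, arginine or FMN aptamers are transcribed on-chip within common flanks. They are titrated with a labelled K4 kissing-loop RNA reporter in RNA-MaP buffer (100 mM Tris pH 7.5, 80 mM KCl, 4 mM MgCl2), without ligand or with the indicated ligand. Median apparent KD per design.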

[1] = input ligand: theophylline 20 uM
[2] = input ligand: tryptophan 2.4 mM
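Also: bound reporter read as fluorescence of individual clusters on recovered sequencing chips by microscopy, with normalized cluster intensities fitted with a binding model.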

| Sequence | apparent KD of K4 kissing-loop reporter (input ligand: FMN 200 uM) [nM] | apparent KD of K4 kissing-loop reporter (input ligand: arginine 13.2 mM) [nM] | apparent KD of K4 kissing-loop reporter (input ligand: none) [nM] | apparent KD of K4 kissing-loop reporter [1] [nM] | apparent KD of K4 kissing-loop reporter [2] [nM] |
| --- | --- | --- | --- | --- | --- |
| UAAUUUAUGUCUUUAAUAUAAUAAUCAGAUACCAGUGAUUAAUGACACCCUUGGCAGCUGUAUAGAGUGAUGUUCUUAUGCUUAA [JR_ExcTheophyA_Sub010] | 245 | 316 | 288 | 364 | 179 |
| UCGUCUGUGUGAGGAUAUCCAAGCGAGCUGCGUAAAGGCGCGGCGUUUGGAGUGAUGUUCCAGGCAGGAGAAGGCGCACGGGCUU [Maleisar] | 231 | 296 | 245 | 470 | 292 |
| CUGUUUUAGUCGGCCGCCACUGCAAGUGAUGUUUGGAGUAUUAUGCCGUUUCUGUCCAUUGAACCCAGGACCGGGACCGGAUCGU [theeternabot_exclusion_KL_Trp_B_8] | 212 | 167 | 206 | 186 | 189 |
| GCAGUCAAUCGACCACGAAAGUGGAUGGAUACCAGCCCGAAACCGGGCCCUUGGCAGCCAGUGAUGUUGGAAGACUGCUUUAAAA [#SwitchBubble 14 #K4Late] | 371 | 372 | 548 | 216 | 660 |
| CGGAUGUAGUGAUGUUAUAUUAGAUGUAGACGAGGACCGGUACGGCCGCCACUCGAAACGGCUGCUAGCGCGUUGCGAGGUGUGC [ExTryptoA.Ck] | 341 | 525 | 1120 | 419 | 456 |
| GCCGUAGAUUGAAGGAGCGGCACCCACGGCUCUAACACCUAAGUGAUGUUUAGGUAGUGGUGCCAGGUAGGUCGCAAUCUACGGC | 144 | 153 | 124 | 133 | 131 |
| AGCGGCCAGUCGGCCGCCACUCCAGGCAGUGAUGUUGCUAAGUUUCUACUAGAGUGAUGUUCUAAGAGGACCGGGACUGACGUAU [Exclusion Tryptophan B Gf 8] | 178 | 225 | 199 | 216 | 145 |
| GUCCCAGUGAUGUUGGUAGGCGAGCGGGAUACCAGCGAAGACUCACGCCCUUGGCAGCCCACAUAUCCCACGUAGGGAUUAGCUC [Same State - Theophylline A (Freestyle 20)] | 336 | 359 | 378 | 357 | 351 |
| AUUGUACAAGUGAUGUUUGUUUUUUCCGAAGGAGCGUCUAAUAAGACAGGUAGGUCGCGGAUUCUCUUAAUAAUCAGGUCAUUAA [JR_Nu_ExcArginiA_Sub020] | 364 | 275 | 305 | 281 | 221 |
| AAACAUUGGUCUGAUACCAGUUAGACCGAUAAGGUCAAAACUGGAGUGAUGUUCCCAAAUAACCCUUGGCAGCAGACCGAUGAAA [MAT - Same State Theophlline B - Mod of Eli - D10] | 147 | 66 | 212 | 185 | 231 |
| AGACUACCACACUGUCAAUAGACAGUGGACUAGGAUAUGCUGAUAAGCAGAAGGAGUGAUGUUCCUAGGUAGUCAAUAAAAUAAU [FmnAX 13 G28] | 357 | 301 | 378 | 532 | 396 |
| CGCCGUAAGGCGAGCGCUCCCACUCCGGAAGGAGCGCCCGGAAGGGCAGGUAGGUCGCCGGAGUGAUGUUCCGGUGGAGGGCUCG [#2 Exclusion - Arginine A Attempt #12 (Inspired by Omei)] | 229 | 144 | 282 | 221 | 317 |
| AAGCAGUCACUCAAAGCCAUCGAAGAUGGACGAGGACCGGUACGGCCGCCACUCGGAGUGAUGUUCCGAAGACUGCAAAAUAAAA | 408 | 295 | 304 | 511 | 230 |
| UGAUACCAGACUGAUACCAGCCAGUGAUGUUGGCUAAUCCGAGAAGGAGUCAAAGACUCCGGCCCUUGGCAGCAGUCUGGUAUCU [TheoBX 4 #SwitchBubble #StaticStem] | 133 | 117 | 133 | 128 | 121 |
| AAGAGCUAGGCGGCCGCCACUAGUUGUGAACACAUACAAGCCAGUGAUGUUGGUAUGGUGGACGGUAGGACCGGGCCUAGCUGAA [Exclusion - Tryptophan B (Freestyle 16)] | 180 | 229 | 224 | 259 | 283 |
| UAUUAAUAUUUUUCAGUGAUGUUAAUUGAUACCAGCCCGAAACCGGGCCCUUGGCAGCGAGUGAUGUUGGUUGUCAGCAUAAAUA [KL-XTheo-A13] | 860 | 596 | 836 | 676 | 667 |

| Sequence | apparent KD of K4 kissing-loop reporter (input ligand: FMN 200 uM) [nM] | apparent KD of K4 kissing-loop reporter (input ligand: arginine 13.2 mM) [nM] | apparent KD of K4 kissing-loop reporter (input ligand: none) [nM] | apparent KD of K4 kissing-loop reporter [1] [nM] | apparent KD of K4 kissing-loop reporter [2] [nM] |
| --- | --- | --- | --- | --- | --- |
| AUUUUUUUGUCAGGAUAUUAGUGUGCGUUUGGUUUGUUAGUGAUGUUGAUAUUUUGUUUAUGUAUUUAAGAAGGGAUUUAGCGGU [aaeatemullin] | 534 | 436 | 501 | 504 | 349 |
| GGGUUUGCCGGAAGGAGCGCACUAUGGAGUGAUGUUCCAUGACCGCACAGCUUGCGGUCAGUGCAGGUAGGUCGCCGGUAACGUU [Enatbeve] | 237 | 181 | 180 | 201 | 194 |
| CGGCGCGGCGCGGCCGCCACUGCGCCUGGGUGCUCGCCGAGUGAUGUUCGUCGGCGGUUGGGUGGCAGGACCGGGUGCCGGCCCG [BDazzled - #18 SS Tryptophan B] | 930 | 703 | 827 | 1030 | 768 |
| UGUGUGUAGGGAAGGAGCGCCGAGAGAAGAAGAAAAGAGUGAUGUUCAAGACAAUAAAGACGGCAGGUAGGUCGCCCUGUGUGUG [Default title] | 756 | 706 | 516 | 517 | 267 |
| UUUGGAAGCGGUGUUGAUUAGGGAGCGGAAGGAGCGCCGAUUAUGGCAGGUAGGUCGCCGGAAUGUAGUGAUGUUGCAUAGAGGU [ExArgA.X] | 185 | 130 | 240 | 273 | 128 |
| UUUGGUUUCUCGGCCGCCACUCGUUGGUUAUGGGCCUCAGGGAUAUAGUGAUGUUAUGUAAAGAAGAGGACCGGGAGAAGGAAGG [ExTryptoB.Do] | 493 | 395 | 225 | 283 | 380 |
| CCCUCACGAGUGAUGUUCGUAGGGUACAGUCAGGAUAUCAUGCGGUUGAGAAGGGACAGAGAAGGCGGCCACGGGUUGCUUAUCU [Ussoat] | 215 | 258 | 342 | 388 | 308 |
| AGAGUUAAUUAGUCUUUUUUUACAUUAAGUCAGGAUAUCGUAUAUUCGAGAAGGGACACAUGCUAGUGAUGUUAGCUAUUUCUCA [JR_Nu_ExcFMNA_Sub019] | 39.7 | 79.6 | 47.5 | 71.7 | 44.4 |
| CGCAGUGAUGUUGCUAUUAUUCUUGGUUAACGAGGACCGGUACGGCCGCCACUCGGUUUCUAUCUAAUCCAGUGUUUUUUUGAGU [#24 K4 Tryptophan A Exclusion] | 425 | 506 | 556 | 573 | 246 |
| AGGUCCGAGCCUGCAAAGGCUCGGACCUGUUAGGAUAUGACGUUAUUCAGAAGGGAUGGGUGGAGUGAUGUUCCACCCGCAAGGG [#2 Same State - FMN A Attempt #7 (HarryS)] | 142 | 105 | 120 | 98.4 | 113 |
| AAAAUAAUCCAGUGAUGUUGGUAUCCAGAUACCAGCCACGAAAGUGGCCCUUGGCAGCUGUAGGACGUACAAAUAAGUACGUCCA [#OpenEnded 7 #StaticStem #K4Early] | 361 | 175 | 345 | 486 | 444 |
| AGAUGUCUCUGGGAUACCAGUCGGAGUCUCAGGGCUCGGAGUGAUGUUCUGGGAUGUUUCGGCCCUUGGCAGCCCUGGGACUCCC [#2 Exclusion - Theophylline B Attempt #27 (HarryS)] | 724 | 514 | 649 | 740 | 542 |
| UUAUGUUUAGUUCACCCAGUGAUGUUGGAAGGAGCGUGCGAAAGCACAGGUAGGUCGCCAACCUUAAAGUGUCUUGAUUAUCUAA [JR_Nu_ExcArginiA_Sub029] | 400 | 499 | 411 | 386 | 364 |
| AUUCGCAGUGAUGUUGCGAUUCCGUUGAGGGAGGAUAUUGGUAAUACAAGAAGGCCCGGCUGCGGGUGAUGUUCGCAUUAGGGCC [Exclusion FMN A GF18] | 151 | 143 | 146 | 153 | 126 |
| UUAGGAGUGGGAGGAUAUCCUGGUGUGGGUGAUGUUAGUGAUGUUGAAAGUGUAGUGAUGUUGUGCGGAGAAGGUCCAGUGUUGA [BDazzled - #10 - Exc. FMN B] | 504 | 295 | 459 | 646 | 292 |
